Test results from paper PMC2887044 (Journal of molecular biology, 2010).
Read-outs that look alike come from different tables or passages of the source.

How the values were obtained:
Test in all cases: FRET or BRET
FRET or BRET [1] = molecular target: the molecule itself
FRET or BRET [2] = molecular target: the molecule itself; remark: listed apart in the source
FRET or BRET [3] = molecular target: the molecule itself; remark: listed apart in the source

B1: Alexa-labelled apoC-II S61C (Alexa-488 apoC-II; Alexa-594 apoC-II) (natural protein, human, UniProt P02655 23-101, looked up)
chain: TQQPQQDEMPSPTFLTQVKESLSSYWESAKTAAQNLYEKTYLPAVDEKLRDLYSKSTAAMCTYTGIFTDQVLSVLKGEE
modifications: conjugated with Alexa dyes (Alexa 488 C5 maleimide or Alexa 594 C5 maleimide)
B1 showed a koff (FRET or BRET [1]) of 0.0125 s⁻¹, a koff (FRET or BRET [2]) of 0.00639 s⁻¹ and a koff (FRET or BRET [3]) of 0.161 s⁻¹.
